In patent publication US20070031912A1 (RIKEN, published 2007):
Changes are numbered by the printed parent chain.

B1: mKO-FM14-N-LZA (other)
chain: MVSVIKPEMKMRYYMDGSVNGHEFTIEGEGTGRPYEGHQEMTLRVTMAEGGPMPFAFDLVSHVFCYGHRVFTKYPEEIPDYFKQAFPEGLSWERSLEFEDGGSASVSAHISLRGNTFYHKSKFTGVNFPADGPIMQNQSVDWEPSTEKITASDGVLKGDVTMYLKLEGGNSADGGGGSGGGGSGGGGSIHHTGGRAQLEKELQALEKENAQLEWELQALEKELAQK
notes: Made by in vitro translation; also called fusion of the N-terminal fragment (1st-168th) of mKO-FM14 with leucine zipper acidic (LZA)
B2: mKO-FM20-N-LZA (other)
chain: B1 chain with V70C
notes: N-terminal fragment (1-168) of mKO-FM20 (cysteine at position 70) fused with LZA
B3: mKO-FM24-N-LZA (other)
chain: B1 chain with V70T
notes: N-terminal fragment (1-168) of mKO-FM24 (threonine at position 70) fused with LZA
B4: mKO-FM3-N-LZA (other)
chain: B1 chain with V70S
notes: N-terminal fragment (1-168) of mKO-FM3 (serine at position 70) fused with LZA
B5: mKO-FM5-N-LZA (other)
chain: B1 chain with V70A
notes: N-terminal fragment (1-168) of mKO-FM5 (alanine at position 70) fused with LZA
B6: mKO-FM14-N (other)
chain: MVSVIKPEMKMRYYMDGSVNGHEFTIEGEGTGRPYEGHQEMTLRVTMAEGGPMPFAFDLVSHVFCYGHRVFTKYPEEIPDYFKQAFPEGLSWERSLEFEDGGSASVSAHISLRGNTFYHKSKFTGVNFPADGPIMQNQSVDWEPSTEKITASDGVLKGDVTMYLKLEG
notes: Fragment without linker and leucine zipper, made by in vitro translation; also called N-terminal fragment from the 1st to the 168th of mKO-FM14; negative control without leucine zipper

Tests used:
[1] = biological target: T1, mKO-FM14-C-LZB; test: split fluorescent protein complementation in vitro, in vitro translated proteins mixed in PBS at 37° C., fluorescence after 3, 5 and 7 hours
T1 construct: Made by in vitro translation; also called fusion of the C-terminal fragment (169th-218th) of mKO-FM14 with leucine zipper basic (LZB)
T1 chain: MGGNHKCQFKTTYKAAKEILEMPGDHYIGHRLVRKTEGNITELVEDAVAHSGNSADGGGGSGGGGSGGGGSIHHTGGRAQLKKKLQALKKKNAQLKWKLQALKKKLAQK
Protocol: (§1) 20 μl of each mKO-FM14-N-LZA and mKO-FM14-C-LZB which was synthesized by in vitro translation was added to 1000 μl of PBS and the total volume was made up to 1040 μl. The mixture was left standing at 37° C. and the fluorescence measurements were carried out every 2 hours (after 3, 5 and 7 hours from the mixing) by a F-2500 (HITACHI). The method of measurement was by the double wavelength excitation and a single wavelength measurement (excitation spectra at 580 nm, green component and orange component were set at 500 nm and 548 nm, respectively) or by the double wavelength excitation and double wavelength measurement (green fluorescence at 509 nm by excitation by 470 nm and orange fluorescence at 560 nm by excitation by 520 nm were obtained) (FIG. 2). Also, as negative controls, 20 μl of each mKO-FM14-N and mKO-FM14-C which was synthesized by in vitro translation and to which no proteins for interaction were fused was added to 1000 μl of PBS and the total volume was made up to 1040 μl. The mixture was left standing at 37° C. and the fluorescence measurements were carried out every 2 hours (after 3, 5 and 7 hours from the mixing) by a F-2500 (HITACHI).

[2] = biological target: T1, mKO-FM14-C-LZB; test: split fluorescent protein complementation in vitro, fluorescence from 1 to 12 hours after mixing
Protocol: as §1, with “The mixture was left standing at 37° C. and the fluorescence measurements were carried out every 2 hours (after 3, 5 and 7 hours from the mixing) by a F-2500 (HITACHI).” left out
By substituting the 70th proline (P) of mKO with various amino acids, variants were obtained in which the ratio of green fluorescence and orange fluorescence was changed according to the passage of time. The variant in which 70th proline (P) was substituted with alanine (A), serine (S), cysteine (C), threonine (T), and valine (V) was designated as mKO-FM5, mKO-FM3, mKO-FM20, mKO-FM24 and mKO-FM14, respectively. Each variant was similarly split into two molecules and similarly fused with LZA and LZB to carry out analyses.

[3] = biological target: T2, mKO-FM14-C; test: split fluorescent protein complementation in vitro, 20 µl of each in vitro translated fragment in PBS at 37° C., fluorescence after 3, 5 and 7 hours
T2 construct: Fragment without linker and leucine zipper, made by in vitro translation; also called C-terminal fragment from 169th to 218th of mKO-FM14; negative control without leucine zipper
T2 chain: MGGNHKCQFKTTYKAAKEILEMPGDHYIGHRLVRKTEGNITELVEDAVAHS
Protocol: as §1

Row | Binder | binding result [2] | further results
1 | B1 |  | binding result [1]: binds
2 | B2 | binds | 
3 | B3 | binds | 
4 | B4 | binds | 
5 | B5 | binds | 
6 | B6 |  | binding result [3]: no binding
